Assay results reported in publication PMC8241133.

Target: CD123 peptide epitope (24 aa, extracellular domain, disulfide between the two Cys) (UniProt P26951)
Assay: flow cytometry, peptide-coated magnetic beads
Conditions: PBS (binding buffer), 37 °C, 30 min; BSA-bead signal subtracted for Kd; pH and salt not given

UniProt P26951, sequence (P26951 whole entry, the tested form may be a part): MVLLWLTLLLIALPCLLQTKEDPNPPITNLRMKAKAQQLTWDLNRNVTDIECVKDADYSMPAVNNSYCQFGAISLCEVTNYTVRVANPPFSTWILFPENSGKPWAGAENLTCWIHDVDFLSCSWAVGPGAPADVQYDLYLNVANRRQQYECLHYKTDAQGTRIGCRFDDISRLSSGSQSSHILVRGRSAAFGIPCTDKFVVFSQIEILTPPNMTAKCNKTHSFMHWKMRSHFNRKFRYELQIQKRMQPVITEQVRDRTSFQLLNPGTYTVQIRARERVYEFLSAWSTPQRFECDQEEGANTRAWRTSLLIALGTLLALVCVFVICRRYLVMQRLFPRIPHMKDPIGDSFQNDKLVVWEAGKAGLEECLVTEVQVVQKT

Sequence | Kd [nM]
TGCGTGTGTACTGTGTCTGGTCCCGTAGCTACTAGCGAACTCCCTGCCTCTTAGGGATTTGGGCGG [CY30] | 15.4
TGCGTGTGTAGTGTGTCTGGGCTACATCGATGAGCTGCCTAGGGTCCCTCTTAGGGATTTGGGCGG [ZW25] | 29.4
